Drawing on paper PMC4369318, this text covers LTx as percent of total LF (animal 16N, terminal stage) and LTx as percent of total LF (animal 89N, terminal stage) for one substance.

The target of this test is protective antigen (PA63 as LTx) in plasma or serum of subjects with inhalation anthrax (Bacillus anthracis (secreted during infection of rhesus macaques and humans)). As to the kind of experiment: co-IP.
protective antigen (PA63 as LTx) in plasma or serum of subjects with inhalation anthrax (Bacillus anthracis (secreted during infection of rhesus macaques and humans)), sequence (P13423 30-764): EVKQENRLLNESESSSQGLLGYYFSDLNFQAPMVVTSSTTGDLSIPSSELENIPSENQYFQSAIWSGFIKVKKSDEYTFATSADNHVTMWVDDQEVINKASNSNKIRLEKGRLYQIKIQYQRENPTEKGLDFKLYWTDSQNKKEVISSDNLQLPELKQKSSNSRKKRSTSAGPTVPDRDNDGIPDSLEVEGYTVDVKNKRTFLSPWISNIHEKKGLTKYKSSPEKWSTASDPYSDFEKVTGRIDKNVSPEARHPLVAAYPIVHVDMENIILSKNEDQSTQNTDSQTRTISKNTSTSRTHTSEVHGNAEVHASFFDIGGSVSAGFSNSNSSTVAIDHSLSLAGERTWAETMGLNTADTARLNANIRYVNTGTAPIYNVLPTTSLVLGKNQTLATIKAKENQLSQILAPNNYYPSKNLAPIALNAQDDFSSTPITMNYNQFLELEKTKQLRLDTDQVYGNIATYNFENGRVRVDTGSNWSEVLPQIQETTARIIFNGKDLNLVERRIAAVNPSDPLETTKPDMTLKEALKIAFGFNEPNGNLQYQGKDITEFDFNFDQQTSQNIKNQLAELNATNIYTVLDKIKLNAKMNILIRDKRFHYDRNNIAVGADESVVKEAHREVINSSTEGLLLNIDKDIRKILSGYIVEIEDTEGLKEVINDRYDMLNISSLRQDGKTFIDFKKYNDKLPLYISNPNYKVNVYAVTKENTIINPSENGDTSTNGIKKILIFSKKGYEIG

For “lethal factor (LF) in plasma or serum of subjects with inhalation anthrax (from UniProt P15917 34-809) (enzyme)”, the LTx as percent of total LF (animal 16N, terminal stage) was determined as 100% and the LTx as percent of total LF (animal 89N, terminal stage) stood at 60%.
